Test [1] deals with T1, Peptide 3-BSA (SSMEDYVNFN-C conjugated to BSA) (human).
T1 peptide: SSMEDYVNFNC(BSA)
In words: ELISA; Ab 0.125 ug/mL; repI. Here is the method: (§1) In brief, plates with each non-conjugated peptide (50 μg/mL) or BSA-conjugated peptide (5 μg/mL) were coated in 0.58M carbonate-bicarbonate buffer pH9.5, 100 μL/well, at 4° C. […] After washing, wells were incubated with the 3, 3′,5,5′-Tetramethylbenzidine (TMB) HRP substrate and reactions were stopped with 2M HCl and OD450 was recorded.

In test [2] the target is T2, Peptide 4-BSA (SMEDYVNFNF-C conjugated to BSA) (human).
T2 peptide: SMEDYVNFNFC(BSA)
In words: ELISA; Ab 0.125 ug/mL; repI. Here is the method:
as §1
In general terms: An ELISA detects its analyte on a solid surface through an enzyme-linked reagent.

Test [3] deals with T3, Peptide 1, non-conjugated (MADDYGSEST-C) (human).
T3 construct: With the extra C-terminal Cys
T3 peptide: MADDYGSESTC
In words: ELISA; Ab 0.125 ug/mL; repI. Here is the method: as §1

The target in test [4] is T4, Peptide 3, non-conjugated (SSMEDYVNFN-C) (human).
T4 construct: With the extra C-terminal Cys
T4 peptide: SSMEDYVNFNC
In words: ELISA; Ab 0.125 ug/mL; repI. Here is the method:
as §1

The target of test [5] is T5, Peptide 4, non-conjugated (SMEDYVNFNF-C) (human).
T5 construct: With the extra C-terminal Cys
T5 peptide: SMEDYVNFNFC
As to the kind of experiment: ELISA; Ab 0.125 ug/mL; repI. On the procedure: as §1

In test [6] the target is T6, antigen peptide-BSA (immunisation peptide #1 MADDYGSESTSSMEDYVNFNF-C conjugated to BSA) (human, extra C-terminal Cys conjugated to BSA).
T6 construct: also called Positive control antigen peptide-BSA; MADDY peptide
T6 peptide: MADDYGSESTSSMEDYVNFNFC
In words: ELISA; Ab 0.125 ug/mL; repI. On the procedure: as §1

In test [7] the target is T7, Peptide 1-BSA (MADDYGSEST-C conjugated to BSA) (human).
T7 peptide: MADDYGSESTC(BSA)
As to the kind of experiment: ELISA; Ab 0.125 ug/mL; repI. Here is the method: as §1

Test [8] concerns the target T8, human CCR9 on cells (MOLT-4, SupT1) (human, UniProt P51686 1-369).
T8 construct: whole, on cells; also called C-C chemokine receptor type 9; CDw199
T8 sequence (looked up): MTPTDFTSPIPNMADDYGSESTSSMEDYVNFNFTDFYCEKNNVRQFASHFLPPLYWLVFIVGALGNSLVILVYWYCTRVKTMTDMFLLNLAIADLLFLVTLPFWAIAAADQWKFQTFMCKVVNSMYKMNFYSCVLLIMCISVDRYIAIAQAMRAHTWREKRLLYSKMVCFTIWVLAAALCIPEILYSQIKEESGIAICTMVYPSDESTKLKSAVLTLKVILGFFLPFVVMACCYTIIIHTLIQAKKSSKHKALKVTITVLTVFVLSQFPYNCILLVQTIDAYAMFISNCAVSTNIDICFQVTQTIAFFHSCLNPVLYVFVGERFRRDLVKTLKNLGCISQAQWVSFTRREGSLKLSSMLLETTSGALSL
In words: flow cytometry on 300.19 cells overexpressing human CCR9 against CCR9-negative 300.19 WT cells, detection with anti-mouse-IgG(H+L) A647 [Cont.) B]. (In general: A flow cytometer gives signals particle by particle.)

The target in test [9] is T9, biotin-peptide TSSMEDYVNF (human).
T9 peptide: Biotin-TSSMEDYVNF
As to the kind of experiment: ELISA biotin-peptide; scFv 0.625 ug/mL; repII. On the procedure: (§2) The peptides were synthesized naked or with a N-terminal Biotin modification with a purity of >98%. All four scFvs were verified by ELISA that can be detected with anti-His antibodies. ELISA was performed for scFv-peptide binding validation. Briefly, naked peptides were coated (50 μg/mL) in 0.58M carbonate-bicarbonate buffer pH9.5, 100 μL/well, 4° C. O/N. Then after blocking (3% BSA-PBS, 300 μL/well 37° C. 1.5 h) and washing (PBS+Tween-20 0.05% v/v (0.05% PBST), wells were incubated with each purified scFv antibody at concentration of 1 μg/mL in PBS at 37° C. 1 h. After washing (0.05% PBST), wells were incubated with secondary antibodies (goat anti-His IgG-HRP) in PBS, 37° C., 30 min. After washing, and incubation with TMB substrate, reactions were stopped with 2M HCl and reading was quantified at OD450.
(§3) ELISA with biotin-conjugated peptides (5 μg/mL) was performed very similar to described above with minor modifications.
(§4) A full curve ELISA was performed for each positive scFv/biotin-peptide pair in order to confirm previous results. Tables 15-17 show ELISA results of the dose-dependent full curve for each positive peptide with scFv “CCR9_HUM”, “Comp-2” and “Comp-3”, respectively.

Test [10] concerns the target T10, biotin-peptide SSMEDYVNFN (human).
T10 peptide: Biotin-SSMEDYVNFN
In words: ELISA biotin-peptide; scFv 0.625 ug/mL; repII. Here is the method: as §2, §3, §4

For test [11], the target named is T11, biotin-peptide SMEDYVNFNF (human).
T11 peptide: Biotin-SMEDYVNFNF
As to the kind of experiment: ELISA biotin-peptide; scFv 0.625 ug/mL; repII. Here is the method: as §2, §3, §4

Test [12] has as its target T12, biotin-peptide MEDYVNFNFT (human).
T12 peptide: Biotin-MEDYVNFNFT
In words: ELISA biotin-peptide; scFv 0.625 ug/mL; repII. Here is the method: as §2, §3, §4

For test [13], the target named is T13, biotin-peptide MTPTDFTSPI (human, also: prints MTPTDFTSP, without I10).
T13 peptide: Biotin-MTPTDFTSPI
In words: ELISA, biotin-peptide.

The target in test [14] is T14, biotin-peptide TSPIPNMADD (human).
T14 peptide: Biotin-TSPIPNMADD
In words: ELISA, biotin-peptide.

Test [15] has as its target T15, biotin-peptide IPNMADDYGS (human).
T15 peptide: Biotin-IPNMADDYGS
As to the kind of experiment: ELISA, biotin-peptide.

Test [16] has as its target T16, biotin-peptide MADDYGSEST (human).
T16 peptide: Biotin-MADDYGSEST
As to the kind of experiment: ELISA, biotin-peptide.

The target of test [17] is T10, biotin-peptide SSMEDYVNFN
As to the kind of experiment: ELISA, biotin-peptide.

The target of test [18] is T12, biotin-peptide MEDYVNFNFT
As to the kind of experiment: ELISA, biotin-peptide.

Test [19] addresses T17, biotin-peptide YVNFNFTDFY (human).
T17 peptide: Biotin-YVNFNFTDFY
In words: ELISA, biotin-peptide.

The target in test [20] is T18, biotin-peptide FNFTDFYCEK (human).
T18 peptide: Biotin-FNFTDFYCEK
In words: ELISA, biotin-peptide.

The target in test [21] is T19, naked peptide 1a MTPTDFTSPIPNMADDYGSESTSS (human).
T19 construct: also called region 1-24
T19 peptide: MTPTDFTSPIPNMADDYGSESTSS
As to the kind of experiment: ELISA, naked peptide coated. On the procedure: as §2

In test [22] the target is T20, naked peptide 1b MEDYVNFNFTDFYCEKNNVRQFAS (human).
T20 construct: also called region amino acids 25 to 48
T20 peptide: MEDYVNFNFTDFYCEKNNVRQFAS
As to the kind of experiment: ELISA, naked peptide coated. Here is the method: as §2

Where no end group is shown, it is not given here. The star is where a group is joined. Biotin = O=C1N[C@H]2[C@H](CS[C@H]2CCCCC(=O)*)N1

B1: anti-CCR9 antibody clone 115 (murine, from hybridoma #115) (antibody, V domains shown)
VH: QVQLKQSGPELVKPGTSVRVSCTASGYSFTDYIIYWVKQSHGRSLEWIGYIDPNNYNTRYSQKFKGKATLTVDKSSTSAFMHLNSLTSDDSAVYYCARDVYWGQGTTLTVSS
VL: DVVMTQTPLSLTVSLGDQASISCRSSQSLVHSNGKTYLQWYLQKPGQSPKLLIYKVSNRFSGVPDRFSGSGSGTDFTLKISRVEAEDLGVYFCAQSTHVWTFGGGTKLEIKR
notes: Mouse IgG1
For the molecule B1, the OD450 in test [1] came to 1.97 OD; in [2], 2.23 OD; in [3], 0.01 OD; in test [4], 1.77 OD; in [5], 1.69 OD; in test [6] it was 2.15 OD. This molecule yielded an OD450 in [7] of 0.02 OD. For the same molecule, the binding result in test [8] was “binds”.

B2: CCR9_HUM2 scFv (humanized anti-CCR9 scFv, SEQ ID NO: 17 with C-terminal 6xHis tag) (scFv)
scFv: QVQLVQSGAEVKKPGASVKVSCTASGYSFTDYIIYWVKQAHGQSLEWMGYIDPNNYNTRYSQKFQGKVTITVDKSSTSAYMELNSLTSDDTAVYYCARDVYWGQGTTVTVSSGGGGSGGGGSGGGGSGGGGSDVVMTQTPLSLSVTPGQPASISCRSSQSLVHSNGKTYLQWYLQKPGQSPKLLIYKVSNRFSGVPDRFSGSGSGTDFTLKISRVEAEDVGVYFCAQSTHVWTFGGGTKVEIKRAHHHHHH
In the case of B2, the OD450 in test [9] was found to be 0.67 OD; in [10], 1.74 OD; in test [11] it was 1.67 OD; in [12], 1.46 OD.

B3: Comparative antibody 1 (Comp-1) scFv, SEQ ID NO: 10 from WO2023/037125 A1, His-tagged (scFv)
scFv: QVQLKESGPGLVQPSQTLSLTCTVSGFSVASYDMHWVRLPPGKGLEWMGIIWANGNTHYNSGLKSRLSISRDTSKSQVFLKMNSLQTEDTAIYFCTRGGFAYWGQGTLVTVSSGGGGSGGGGSGGGGSGGGGSDVVMTQTPVSLSVSLGGQVSISCRSSQSLVHNNGNTYLSWYLQKPGQSPQLLIYKVSNRFSGVSDRFSGSGSGTDFTLKISRVEPDDLGVYYCGQGTQYPTFGGGTKLELKHHHHHH
Consider B3, for which the binding result in test [13], in [14], in [15], in test [16], in test [17] and in [18] was “no binding (tested: 10 ug/mL)” throughout. Besides, the binding result is “no binding (tested: 10 ug/mL)” in [19], “no binding (tested: 10 ug/mL)” in test [20], “no binding” in [21] and “no binding” in [22].

For the origin of these results see US20260232732A1 (FUNDACI INSTITUT DE RECERCA CONTRA LA LEUC MIA JOSEP …, published 2026).
